The results in this text go back to patent publication CN116829596A.

A value given as a limit tells only on which side of the number the result lay.

For test [1], the target named is 人类血浆激肽释放酶 (human plasma kallikrein) (human) (UniProt P03952). The test can be described thus: SPR, 37 C, pH 6.0.
For test [2] the target is unchanged. In words: SPR, 37 C, pH 7.4.
Another test addresses 丝氨酸穿膜蛋白酶. In words: cell-based or functional assay.
Test [3] deals with 人类血浆激肽释放酶 (human plasma kallikrein) (human) (UniProt P03952). The test can be described thus: cell-based or functional assay.
Another test has as its target 凝血酶A (thrombin A). In words: cell-based or functional assay.
Test [4] deals with 胰蛋白酶、人类胰酶 (trypsin, human pancreas) (human) (UniProt P07477). The test can be described thus: cell-based or functional assay.
Test [5] has as its target 人类血浆激肽释放酶 (human plasma kallikrein) (human) (UniProt P03952). The test can be described thus: SPR, 37 C, pH 7.4 or pH 6.0.
For test [6] the target is unchanged. The test can be described thus: SPR, 37 C, pH 6 against pH 7.4.

Chain of UniProt P03952 (P03952 20-390 S143N limits assumed, chain 1 of 2): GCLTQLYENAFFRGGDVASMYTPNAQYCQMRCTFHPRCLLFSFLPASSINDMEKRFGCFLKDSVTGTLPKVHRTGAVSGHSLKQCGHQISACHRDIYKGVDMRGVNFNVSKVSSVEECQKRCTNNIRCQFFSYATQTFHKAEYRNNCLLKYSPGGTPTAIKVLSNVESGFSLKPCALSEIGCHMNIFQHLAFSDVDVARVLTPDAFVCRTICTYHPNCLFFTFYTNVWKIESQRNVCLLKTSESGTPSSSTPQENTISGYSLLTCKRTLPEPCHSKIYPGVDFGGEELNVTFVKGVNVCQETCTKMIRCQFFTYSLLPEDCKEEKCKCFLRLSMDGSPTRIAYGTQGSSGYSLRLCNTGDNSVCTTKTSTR
Chain of UniProt P03952 (P03952 391-638 limits assumed, chain 2 of 2): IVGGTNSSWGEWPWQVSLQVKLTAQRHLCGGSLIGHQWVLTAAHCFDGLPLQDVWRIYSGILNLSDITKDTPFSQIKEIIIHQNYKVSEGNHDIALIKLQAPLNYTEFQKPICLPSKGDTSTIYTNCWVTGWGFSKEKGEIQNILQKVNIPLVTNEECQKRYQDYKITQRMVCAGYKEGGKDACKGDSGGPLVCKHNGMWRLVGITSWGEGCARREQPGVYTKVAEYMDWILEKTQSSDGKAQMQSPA

Take DX-2930 (antibody): the Kd amounted to 0.236 µM in test [1] and 0.018 µM in test [2]. The 丝氨酸蛋白酶抑制分析，IC50 in the test with 丝氨酸穿膜蛋白酶 and with 凝血酶A (thrombin A) was more than 1 µM in each case. The IC90，HMWK功能分析 in test [3] stood at 0.3 µM. The substance also returned a 胰蛋白酶抑制分析，IC50 in test [4] of 0.243 to 0.376 µM. The fold affinity for plasma kallikrein over prekallikrein in test [5] was > 1000 倍. The fold change of KD between pH 6 and pH 7.4 in test [6] was > 10 倍.
